We go through one protein from patent publication US20140309172.

Data set [1] addresses alpha-synuclein (wild-type, full-length human α-synuclein).
Data set [2] concerns the target T1, Ac-YVAD-AMC (model substrate, from Enzo, Inc.).
T1 chain: YVAD

B1: caspase-1 (ICE), purified, activated (protein)
chain: NPAMPTSSGSEGNVKLCSLEEAQRIWKQKSAEIYPIMDKSSRTRLALIICNEEFDSIPRRTGAEVDITGMTMLLQNLGYSVDVKKNLTASDMTTELEAFAHRPEHKTSDSTFLVFMSHGIREGICGKKHSEQVPDILQLNAIFNMLNTKNCPSLKDKPKVIIIQACRGDSPGVVWFKDSVGVSGNLSLPTTEEFEDDAIKKAHIEKDFIAFCSSTPDNVSWRHPTMGSVFIGRLIEHMQEYACSCDVEEIFRKVRFSFEQPDGRAQMPTTERVTLTRCFYLFPGH
As to B1, the “cleavage of alpha-synuclein in vitro (SDS-PAGE and western blotting with anti-synuclein antibody)” value in data set [1] is listed as “Purified, activated caspase-1 does indeed cleave alpha-synuclein”. In addition, in data set [2], the “activity against a model substrate” value was 110 µM/min/mg.
